{
  "source": "paper PMC6760808",
  "key": {"[1]": {"molecular_target": "Cer-NPHP4-YC (UniProt O75161)", "sequence (O75161 whole entry)": "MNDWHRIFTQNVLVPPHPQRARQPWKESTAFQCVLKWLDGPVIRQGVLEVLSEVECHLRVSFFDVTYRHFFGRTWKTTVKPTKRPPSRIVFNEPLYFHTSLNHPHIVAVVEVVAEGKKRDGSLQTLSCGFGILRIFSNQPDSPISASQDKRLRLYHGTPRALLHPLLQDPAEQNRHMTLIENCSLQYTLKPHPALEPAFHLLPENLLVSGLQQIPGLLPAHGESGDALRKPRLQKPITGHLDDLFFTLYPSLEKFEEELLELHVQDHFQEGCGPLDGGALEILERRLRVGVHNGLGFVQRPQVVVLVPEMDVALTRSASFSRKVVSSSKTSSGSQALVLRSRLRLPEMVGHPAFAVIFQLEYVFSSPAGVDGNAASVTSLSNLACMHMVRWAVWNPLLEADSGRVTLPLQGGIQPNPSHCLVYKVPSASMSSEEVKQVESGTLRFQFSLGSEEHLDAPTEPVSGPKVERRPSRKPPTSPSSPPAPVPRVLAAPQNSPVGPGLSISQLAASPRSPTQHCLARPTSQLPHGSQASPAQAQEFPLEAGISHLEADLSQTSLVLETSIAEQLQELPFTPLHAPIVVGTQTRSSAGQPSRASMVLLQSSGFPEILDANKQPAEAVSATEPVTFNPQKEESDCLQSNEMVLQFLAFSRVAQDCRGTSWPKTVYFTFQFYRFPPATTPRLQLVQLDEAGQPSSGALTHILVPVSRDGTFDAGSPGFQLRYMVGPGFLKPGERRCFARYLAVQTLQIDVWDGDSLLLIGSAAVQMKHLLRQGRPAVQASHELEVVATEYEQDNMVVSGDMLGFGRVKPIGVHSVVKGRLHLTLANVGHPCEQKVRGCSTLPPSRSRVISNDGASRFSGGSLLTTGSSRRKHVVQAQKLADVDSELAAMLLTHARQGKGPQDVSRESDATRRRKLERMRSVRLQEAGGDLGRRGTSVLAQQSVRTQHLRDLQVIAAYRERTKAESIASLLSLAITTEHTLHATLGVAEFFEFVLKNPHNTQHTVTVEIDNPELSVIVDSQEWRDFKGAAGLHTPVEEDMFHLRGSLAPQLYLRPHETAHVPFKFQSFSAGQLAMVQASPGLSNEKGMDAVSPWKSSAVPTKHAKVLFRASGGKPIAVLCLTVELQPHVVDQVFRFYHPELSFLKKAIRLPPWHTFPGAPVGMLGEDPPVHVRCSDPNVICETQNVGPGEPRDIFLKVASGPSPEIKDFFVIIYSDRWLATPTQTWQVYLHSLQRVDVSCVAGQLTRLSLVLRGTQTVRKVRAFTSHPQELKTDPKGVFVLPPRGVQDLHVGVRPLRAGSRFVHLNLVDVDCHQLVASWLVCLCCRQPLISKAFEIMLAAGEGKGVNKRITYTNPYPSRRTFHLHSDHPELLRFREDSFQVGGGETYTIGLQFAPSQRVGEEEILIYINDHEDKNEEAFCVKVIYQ", "assay": "split reporter (BiFC, NanoBiT); BiFC: Cer-NPHP-YC co-expressed with YN-myc-Nup in NIH 3T3 cells in serum-free medium; fixed 48 hours post-transfection; YFP fluorescence at the base of the primary cilium, cells counted across two independent experiments"}, "[2]": {"molecular_target": "Cer-NPHP4-YC (UniProt O75161)", "assay": "split reporter (BiFC, NanoBiT); BiFC: Cer-NPHP-YC co-expressed with YN-myc-Nup in NIH 3T3 cells in serum-free medium; fixed 48 hours post-transfection; YFP fluorescence at the base of the primary cilium, cells counted across two independent experiments", "remark": "listed apart in the source"}},
  "note": "Like-named read-outs stand apart in the source and are kept apart here.",
  "data": [
    {"substance": "YN-myc-Nup35 (from UniProt Q8NFH5 1-326) (natural protein)", "values": [
      {"measurement": "cells with BiFC signal", "setting": "[1]", "result": "4 of 30 cells"},
      {"measurement": "cells with BiFC signal", "setting": "[2]", "result": "4 of 35 cells"}
    ]}
  ]
}
